First the molecules themselves.
B1: glmS ribozyme (parent)
chain: AUAAAAGCGCCAGAACUACAGAAAUGUAGUUGACGAGGAGGAGGUUUAUCGAAUUUUCGGCGGAUGCCUCCAAA

± gives the standard error. Fewer inactive variants are shown than the library holds.

In one data set the parent is B1. The data set is described as follows: self-cleavage kobs at 2500 uM GlcN6P; higher = faster cleavage; RNA array. As to conditions: with glucosamine-6-phosphate. Summed up:
(§1)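 kcat and KM were obtained from weighted Michaelis–Menten fits across concentrations of kobs values. Those came from one- or two-exponential decay fits to per-tile medians normalised to baseline and to non-cleaving reference variants. The variants were barcoded ribozymes transcribed in situ by E. coli RNA polymerase on sequenced MiSeq chips and tracked through a hybridised Cy3 probe at 37 °C, with 40 μM to 10 mM glucosamine-6-phosphate in HEPES/KCl/Mg(OAc)2 buffer flowed in.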
Consider G7A G40A C71A, for which the “self-cleavage kobs at 2500 uM GlcN6P” value was < 1e-05 s⁻¹.
The same measure, in the same setting: as for G7C A12G A39U A42C U65C C71A, the figure is < 1e-05 s⁻¹; as for C16U C58U U69G, 7.44e-05 ± 2.1e-05 s⁻¹.
Still for that read-out and setting: then U31C G35U A48U U49G U57C, with < 1e-05 s⁻¹; and G38A A39C C50G C68A, with 5.88e-05 ± 2.8e-05 s⁻¹; and C8G A14U A42U, with < 1e-05 s⁻¹.
Still for that read-out and setting: then C16A A36U C68G, with 0.000692 ± 0.0002 s⁻¹.
As to C34A A48G U57C, the “self-cleavage kobs at 2500 uM GlcN6P” value was < 1e-05 s⁻¹.
On the same count and under the same terms, as for A33G U47C U54C G62A, the figure is < 1e-05 s⁻¹.
Still for that read-out and setting: as for C16A A39U C71A, the figure is 6.01e-05 ± 1.6e-05 s⁻¹.
Regarding C16A G63C C67G, the “self-cleavage kobs at 2500 uM GlcN6P” value was < 1e-05 s⁻¹.
Still for that read-out and setting: as for U46C U57A C71U, the figure is 4.35e-05 ± 1.6e-05 s⁻¹; as for G7C G38C G51U, < 1e-05 s⁻¹; as for G7A A12G G44A U47G, < 1e-05 s⁻¹.
Same read-out and setting: then A14G G40A G41C, with 0.00048 ± 0.0001 s⁻¹; and C10U A33G G35U U47A G59C, with < 1e-05 s⁻¹; and A6U C10A C11G G35U, with < 1e-05 s⁻¹.
On the same count and under the same terms, then A6G A53C C68A, with < 1e-05 s⁻¹.
As to A12G C16G C68G, the “self-cleavage kobs at 2500 uM GlcN6P” value is 0.00102 ± 0.0005 s⁻¹.
Same read-out and setting: then A12G A14C A33U C34G G38U, with < 1e-05 s⁻¹; and C16U U56C G63A G66U, with < 1e-05 s⁻¹.
As to A14C U54A G59C C71U, the “self-cleavage kobs at 2500 uM GlcN6P” value was < 1e-05 s⁻¹.
On the same count and under the same terms, then G7U A12U G44U, with < 1e-05 s⁻¹.
Still for that read-out and setting: then C8U G37U, with < 1e-05 s⁻¹.
As for G37U G41U U47G G63U, the “self-cleavage kobs at 2500 uM GlcN6P” value was < 1e-05 s⁻¹.
As to A52C C58A C70U, the “self-cleavage kobs at 2500 uM GlcN6P” value was < 1e-05 s⁻¹.
The same measure, in the same setting: as for G29A G37U U57C, the figure is < 1e-05 s⁻¹; as for A39G A42U C68U, 0.000999 ± 0.00036 s⁻¹; as for C8A U45G U57A, < 1e-05 s⁻¹.
On to C11U A42G C71U, for which the “self-cleavage kobs at 2500 uM GlcN6P” value was 0.0013 ± 0.0004 s⁻¹.
Turning to C34U G35A G38U G43A, the “self-cleavage kobs at 2500 uM GlcN6P” value was < 1e-05 s⁻¹.
The same measure, in the same setting: then C10G C11A U30C A36C G37U C70A C71U, with 8.35e-05 ± 3.8e-05 s⁻¹; and G32U G37C A42C, with < 1e-05 s⁻¹; and C16U C34A G41A C68U C71A, with < 1e-05 s⁻¹.
On the same count and under the same terms, as for C10U A14U G44U C61U, the figure is < 1e-05 s⁻¹; as for G7U C8U A52G, < 1e-05 s⁻¹.
For the variant G9U G29A G63A, the “self-cleavage kobs at 2500 uM GlcN6P” value was < 1e-05 s⁻¹.
For the variant A33C G38C A48U, the “self-cleavage kobs at 2500 uM GlcN6P” value is < 1e-05 s⁻¹.

In the next data set the parent is B1. The data set is described as follows: self-cleavage kobs at 10000 uM GlcN6P; higher = faster cleavage; RNA array. As to conditions: with glucosamine-6-phosphate. Summed up: as §1
Consider G43A U46A G59C, for which the “self-cleavage kobs at 10000 uM GlcN6P” value was < 1e-05 s⁻¹.
On the same count and under the same terms, as for G7U C16A G62A, the figure is < 1e-05 s⁻¹.
Turning to G63A A64U C68U, the “self-cleavage kobs at 10000 uM GlcN6P” value is < 1e-05 s⁻¹.
On the same count and under the same terms, then A12G A15U U31G, with 0.000128 ± 2.3e-05 s⁻¹.
In the case of U31C G40C A53G, the “self-cleavage kobs at 10000 uM GlcN6P” value was 0.000261 ± 9.7e-05 s⁻¹.
The same measure, in the same setting: then A15G U54C C71G, with 0.000924 ± 0.00024 s⁻¹.
A12G G13C G35A: the “self-cleavage kobs at 10000 uM GlcN6P” value was < 1e-05 s⁻¹.
Same read-out and setting: then A14U G51A U57C, with < 1e-05 s⁻¹.
The same measure, in the same setting: then A14G C16U A39U, with 0.0817 ± 0.036 s⁻¹; and A14C C50G G62U C67G, with 6.05e-05 ± 1.8e-05 s⁻¹; and G38C A53C C67U, with < 1e-05 s⁻¹.
Still for that read-out and setting: then U30C A36G U54A, with < 1e-05 s⁻¹; and U47C U65G C71U, with 0.00338 ± 0.00055 s⁻¹.
On to C11G G32U A39C, for which the “self-cleavage kobs at 10000 uM GlcN6P” value is < 1e-05 s⁻¹.
On the same count and under the same terms, as for C11G A15U C50A G51U C70A, the figure is 4.33e-05 ± 1.2e-05 s⁻¹; as for G35C U45A C58G, < 1e-05 s⁻¹; as for G37U G38A G51U, < 1e-05 s⁻¹.
Still for that read-out and setting: as for U30G U46C G51U C71U, the figure is < 1e-05 s⁻¹; as for C11A U30C A39C G59U, 0.000272 ± 6.2e-05 s⁻¹.
For G9U A14U, the “self-cleavage kobs at 10000 uM GlcN6P” value was < 1e-05 s⁻¹.
On the same count and under the same terms, as for G9C C50U A64U, the figure is < 1e-05 s⁻¹; as for A53U U65G C67U, 0.00235 ± 0.00042 s⁻¹; as for G44A U65G C67U, 0.00292 ± 0.00045 s⁻¹.
The same measure, in the same setting: then C34A U46A G51A, with < 1e-05 s⁻¹.
Still for that read-out and setting: as for A14C U54A G59C C71U, the figure is < 1e-05 s⁻¹.
Take A6G U47A: the “self-cleavage kobs at 10000 uM GlcN6P” value was 0.000437 ± 0.00013 s⁻¹.
On the same count and under the same terms, then G7A A33G C68U C70G, with 5.57e-05 ± 2e-05 s⁻¹.
Still for that read-out and setting: as for G7U A14U G29C, the figure is < 1e-05 s⁻¹; as for G9U U30A U56G, < 1e-05 s⁻¹.
As for A12C G51A G59U G66U, the “self-cleavage kobs at 10000 uM GlcN6P” value was < 1e-05 s⁻¹.
The same measure, in the same setting: then A12C G32A G35A G51C, with < 1e-05 s⁻¹; and C11U A12U U46G C70U, with 0.000953 ± 0.00017 s⁻¹.
As for G7C A48G C50A, the “self-cleavage kobs at 10000 uM GlcN6P” value is < 1e-05 s⁻¹.
As to C16G U46C C70U, the “self-cleavage kobs at 10000 uM GlcN6P” value was found to be 0.000325 ± 7.4e-05 s⁻¹.
Still for that read-out and setting: as for G29C A36G G60C U69G, the figure is < 1e-05 s⁻¹; as for G13A G38A A64G, < 1e-05 s⁻¹.
The same measure, in the same setting: as for A6U A33G G43C G60U, the figure is < 1e-05 s⁻¹; as for U46C G62A G66A C71A, < 1e-05 s⁻¹; as for A14G G40C G41U, 0.000186 ± 4e-05 s⁻¹.
The same measure, in the same setting: then A42G U45C U46C, with 0.00102 ± 0.00019 s⁻¹; and G44U A48G C50U C71U, with < 1e-05 s⁻¹; and A20C G44U, with 0.000286 ± 8.9e-05 s⁻¹.
In the case of A6C U31A A64C C71G, the “self-cleavage kobs at 10000 uM GlcN6P” value is < 1e-05 s⁻¹.
For the variant A6U A15C A48C A64U, the “self-cleavage kobs at 10000 uM GlcN6P” value is < 1e-05 s⁻¹.
Turning to C8U C16A A39C A42C G59C C67A C70U, the “self-cleavage kobs at 10000 uM GlcN6P” value was < 1e-05 s⁻¹.
On the same count and under the same terms, as for A33C G38C A48U, the figure is < 1e-05 s⁻¹; as for C16U U31G C70A, 8.19e-05 ± 1.7e-05 s⁻¹.
